US20190076400A1 (PROTAGONIST THERAPEUTICS, published 2019)
Read-outs that look alike come from different tables or passages of the source. Square brackets hold non-standard residues; d marks the D form. Ends that are not written are not given here. NMeW = CN[C@@H](Cc1c[nH]c2ccccc12)C(=O)O; Dmt = Cc1cc(O)cc(C)c1C[C@H](N)C(=O)O; NMeY = CN[C@@H](Cc1ccc(O)cc1)C(=O)O; NMeCha = CN[C@@H](CC1CCCCC1)C(=O)O; NMeF = CN[C@@H](Cc1ccccc1)C(=O)O; NMeI = CC[C@H](C)[C@H](NC)C(=O)O; NMePhg = CN[C@H](C(=O)O)c1ccccc1; hPhe = N[C@@H](CCc1ccccc1)C(=O)O; β3hF = N[C@H](CC(=O)O)Cc1ccccc1; NMeL = CN[C@@H](CC(C)C)C(=O)O; NMeNle = CCCC[C@H](NC)C(=O)O; NMeNva = CCC[C@H](NC)C(=O)O; NMeV = CN[C@H](C(=O)O)C(C)C; NMeA = CN[C@@H](C)C(=O)O; Nle = CCCC[C@H](N)C(=O)O; Sar = CNCC(=O)O

How the values were obtained:
Assay in all cases: cell-based or functional assay
[1] = biological target: T1, µ-opioid receptor (MOR), Human-ORPM1 (human, UniProt P35372 1-400)
T1 sequence (P35372 whole entry): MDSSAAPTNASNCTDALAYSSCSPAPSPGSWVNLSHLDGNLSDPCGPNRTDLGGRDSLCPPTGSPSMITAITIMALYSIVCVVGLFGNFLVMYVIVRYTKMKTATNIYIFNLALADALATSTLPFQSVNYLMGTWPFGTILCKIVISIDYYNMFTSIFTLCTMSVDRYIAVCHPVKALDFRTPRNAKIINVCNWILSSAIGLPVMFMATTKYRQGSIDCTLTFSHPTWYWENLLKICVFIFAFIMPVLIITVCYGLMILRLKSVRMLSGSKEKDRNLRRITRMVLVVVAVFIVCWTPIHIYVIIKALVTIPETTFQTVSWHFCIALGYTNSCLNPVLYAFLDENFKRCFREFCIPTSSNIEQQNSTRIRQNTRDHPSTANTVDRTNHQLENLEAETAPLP

[2] = biological target: T2, δ-opioid receptor (DOR), Human-ORPD1 (human, UniProt P41143 1-372)
T2 sequence (P41143 whole entry, stated change not applied): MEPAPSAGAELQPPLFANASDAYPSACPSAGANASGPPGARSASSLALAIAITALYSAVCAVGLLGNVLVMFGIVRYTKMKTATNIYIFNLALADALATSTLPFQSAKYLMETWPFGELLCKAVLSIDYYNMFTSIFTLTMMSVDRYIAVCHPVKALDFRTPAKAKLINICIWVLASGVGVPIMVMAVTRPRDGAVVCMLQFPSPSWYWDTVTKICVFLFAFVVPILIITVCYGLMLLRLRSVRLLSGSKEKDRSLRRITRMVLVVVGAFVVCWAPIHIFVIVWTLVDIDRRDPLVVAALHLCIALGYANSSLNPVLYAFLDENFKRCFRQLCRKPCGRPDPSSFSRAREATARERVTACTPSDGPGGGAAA

[3] = biological target: T1, µ-opioid receptor (MOR), Human-ORPM1; remark: listed apart in the source
[4] = biological target: T2, δ-opioid receptor (DOR), Human-ORPD1; remark: listed apart in the source
[5] = biological target: T1, µ-opioid receptor (MOR), Human-ORPM1; remark: listed apart in the source
[6] = biological target: T2, δ-opioid receptor (DOR), Human-ORPD1; remark: listed apart in the source
[7] = biological target: T1, µ-opioid receptor (MOR), Human-ORPM1; remark: listed apart in the source
[8] = biological target: T2, δ-opioid receptor (DOR), Human-ORPD1; remark: listed apart in the source

Binder | MOR EC50 [1] [nM] | DOR EC50 [2] [nM] | further results
H-[Dmt][dD]G[β3hF][NMeCha]-OH (SMILES Cc1cc(O)cc(C)c1C[C@H](N)C(=O)N[C@H](CC(=O)O)C(=O)NCC(=O)N[C@H](CC(=O)N(C)[C@@H](CC1CCCCC1)C(=O)O)Cc1ccccc1) [H-DMT-(D)Asp-G-bhF-N(Me)-Cha-OH] | ≤ 1 | ≤ 1 | –
H-[Dmt][dA]G[β3hF][Sar]K (also: homodimer: two monomers joined at X5 through a lysine linker (Dimer A)) [[DMT-((D)Ala)-Gly-(β-homoPhe)-(Sar)]2-Lys] | – | – | MOR EC50 [3]: ≤ 1 nM; DOR EC50 [4]: ≤ 1 nM
H-[Dmt][dD]G[β3hF][NMeI]-OH (SMILES CC[C@H](C)[C@@H](C(=O)O)N(C)C(=O)C[C@H](Cc1ccccc1)NC(=O)CNC(=O)[C@@H](CC(=O)O)NC(=O)[C@@H](N)Cc1c(C)cc(O)cc1C) [H-DMT-(D)Asp-G-bhF-N(Me)-Ile-OH] | ≤ 1 | ≤ 1 | –
H-[Dmt][dD]G[β3hF][NMeV]-OH (SMILES Cc1cc(O)cc(C)c1C[C@H](N)C(=O)N[C@H](CC(=O)O)C(=O)NCC(=O)N[C@H](CC(=O)N(C)[C@H](C(=O)O)C(C)C)Cc1ccccc1) [H-DMT-(D)Asp-G-bhF-N(Me)-Val-OH] | ≤ 1 | ≤ 1 | –
H-[Dmt][dD]G[β3hF][NMeNva]-OH (SMILES CCC[C@@H](C(=O)O)N(C)C(=O)C[C@H](Cc1ccccc1)NC(=O)CNC(=O)[C@@H](CC(=O)O)NC(=O)[C@@H](N)Cc1c(C)cc(O)cc1C) [H-DMT-(D)Asp-G-bhF-N(Me)-Nva-OH] | ≤ 1 | ≤ 1 | –
H-[Dmt][dA]A[β3hF][Sar]-NH2 (SMILES Cc1cc(O)cc(C)c1C[C@H](N)C(=O)N[C@H](C)C(=O)N[C@@H](C)C(=O)N[C@H](CC(=O)N(C)CC(N)=O)Cc1ccccc1) [H-DMT-a-Ala-bhF-Sar-NH2] | – | – | MOR cAMP (EC50 nM) [5]: ≤ 1 nM; DOR cAMP (EC50 nM) [6]: ≤ 1 nM; MOR EC50 [7]: ≤ 1 nM; DOR EC50 [8]: ≤ 1 nM
H-[Dmt][dA][hPhe][Nle]-NH2 (SMILES CCCC[C@H](NC(=O)[C@H](CCc1ccccc1)NC(=O)[C@@H](C)NC(=O)[C@@H](N)Cc1c(C)cc(O)cc1C)C(N)=O) [H-DMT-a-hF-Nle-NH2] | – | – | MOR EC50 [7]: ≤ 1 nM; DOR EC50 [8]: ≤ 1 nM
H-[Dmt][dT]G[β3hF][NMeI]-OH (SMILES CC[C@H](C)[C@@H](C(=O)O)N(C)C(=O)C[C@H](Cc1ccccc1)NC(=O)CNC(=O)[C@H](NC(=O)[C@@H](N)Cc1c(C)cc(O)cc1C)[C@H](C)O) [H-DMT-(D)Thr-G-bhF-N(Me)-Ile-OH] | ≤ 1 | ≤ 1 | –
H-[Dmt][dA]G[β3hF][Sar][dK] (not fully specified (C-terminus); printed as [DMT-((D)Ala)-Gly-(β-homoPhe)-(Sar)-(D-Lys)]2-DIG; also: homodimer: the two D-Lys joined through DIG linker (Dimer C)) [[DMT-((D)Ala)-Gly-(β-homoPhe)-(Sar)-(D-Lys)]2-DIG] | – | – | MOR EC50 [3]: ≤ 10 nM; DOR EC50 [4]: ≤ 10 nM
H-[Dmt][dD]G[β3hF][NMePhg]-OH (SMILES Cc1cc(O)cc(C)c1C[C@H](N)C(=O)N[C@H](CC(=O)O)C(=O)NCC(=O)N[C@H](CC(=O)N(C)[C@H](C(=O)O)c1ccccc1)Cc1ccccc1) [H-DMT-(D)Asp-G-bhF-N(Me)-Phg-OH] | ≤ 1 | ≤ 1 | –
H-[Dmt][dD]G[β3hF][NMeY]-OH (SMILES Cc1cc(O)cc(C)c1C[C@H](N)C(=O)N[C@H](CC(=O)O)C(=O)NCC(=O)N[C@H](CC(=O)N(C)[C@@H](Cc1ccc(O)cc1)C(=O)O)Cc1ccccc1) [H-DMT-(D)Asp-G-bhF-N(Me)-Tyr-OH] | ≤ 1 | ≤ 1 | –
H-[Dmt][dD]G[β3hF][NMeW]-OH (SMILES Cc1cc(O)cc(C)c1C[C@H](N)C(=O)N[C@H](CC(=O)O)C(=O)NCC(=O)N[C@H](CC(=O)N(C)[C@@H](Cc1c[nH]c2ccccc12)C(=O)O)Cc1ccccc1) [H-DMT-(D)Asp-G-bhF-N(Me)-Trp-OH] | ≤ 1 | ≤ 1 | –
H-[Dmt][dD]G[β3hF][NMeNle]-OH [H-DMT-(D)Asp-G-bhF-N(Me)-Nle-OH] | ≤ 1 | ≤ 1 | –
H-[Dmt][dA]G[β3hF][Sar][dK] (also: homodimer: two monomers joined at X5 through a D-lysine linker (Dimer A)) [[DMT-((D)Ala)-Gly-(β-homoPhe)-(Sar)]2-(D-Lys)] | – | – | MOR EC50 [3]: ≤ 10 nM; DOR EC50 [4]: ≤ 10 nM
H-[Dmt][dD]G[β3hF][NMeF]-OH (SMILES Cc1cc(O)cc(C)c1C[C@H](N)C(=O)N[C@H](CC(=O)O)C(=O)NCC(=O)N[C@H](CC(=O)N(C)[C@@H](Cc1ccccc1)C(=O)O)Cc1ccccc1) [H-DMT-(D)Asp-G-bhF-N(Me)-Phe-OH] | ≤ 1 | ≤ 1 | –
H-[Dmt][dA]G[β3hF][NMeA]K (also: homodimer: two monomers joined at X5 through a lysine linker (Dimer A)) [[DMT-((D)Ala)-Gly-(β-homoPhe)-(NMe-Ala)]2-Lys] | – | – | MOR EC50 [3]: ≤ 1 nM; DOR EC50 [4]: ≤ 1 nM
H-[Dmt][dE]G[β3hF][NMeI]-OH (SMILES CC[C@H](C)[C@@H](C(=O)O)N(C)C(=O)C[C@H](Cc1ccccc1)NC(=O)CNC(=O)[C@@H](CCC(=O)O)NC(=O)[C@@H](N)Cc1c(C)cc(O)cc1C) [H-DMT-(D)Glu-G-bhF-N(Me)-Ile-OH] | ≤ 10 | ≤ 1 | –
H-[Dmt][dD]G[β3hF]G-NH2 (SMILES Cc1cc(O)cc(C)c1C[C@H](N)C(=O)N[C@H](CC(=O)O)C(=O)NCC(=O)N[C@H](CC(=O)NCC(N)=O)Cc1ccccc1) [H-DMT-(D)Asp-G-bhF-Gly-NH2] | ≤ 1 | ≤ 1 | –
H-[Dmt][dE]G[β3hF][NMeA]-OH (SMILES Cc1cc(O)cc(C)c1C[C@H](N)C(=O)N[C@H](CCC(=O)O)C(=O)NCC(=O)N[C@H](CC(=O)N(C)[C@@H](C)C(=O)O)Cc1ccccc1) [H-DMT-(D)Glu-G-bhF-N(Me)-Ala-OH] | ≤ 10 | ≤ 1 | –
H-[Dmt][dR]HK-NH2 (SMILES Cc1cc(O)cc(C)c1C[C@H](N)C(=O)N[C@H](CCCNC(=N)N)C(=O)N[C@@H](Cc1c[nH]cn1)C(=O)N[C@@H](CCCCN)C(N)=O) [H-DMT-r-H-K-NH2] | – | – | MOR EC50 [7]: ≤ 50 nM; DOR EC50 [8]: > 200 nM
H-[Dmt][dD]G[β3hF][NMeL]-OH (SMILES Cc1cc(O)cc(C)c1C[C@H](N)C(=O)N[C@H](CC(=O)O)C(=O)NCC(=O)N[C@H](CC(=O)N(C)[C@@H](CC(C)C)C(=O)O)Cc1ccccc1) [H-DMT-(D)Asp-G-bhF-N(Me)-Leu-OH] | ≤ 1 | ≤ 1 | –
H-[Dmt][dE]G[β3hF][Sar]-NH2 (SMILES Cc1cc(O)cc(C)c1C[C@H](N)C(=O)N[C@H](CCC(=O)O)C(=O)NCC(=O)N[C@H](CC(=O)N(C)CC(N)=O)Cc1ccccc1) [H-DMT-(D)Glu-G-bhF-Sar-NH2] | ≤ 1 | ≤ 10 | –
H-[Dmt][dA]G[β3hF][NMeI]K (also: homodimer: two monomers joined at X5 through a lysine linker (Dimer A)) [[DMT-((D)Ala)-Gly-(β-homoPhe)-(NMe-Ile)]2-Lys] | – | – | MOR EC50 [3]: ≤ 10 nM; DOR EC50 [4]: ≤ 10 nM
H-[Dmt][dT]G[β3hF][NMeA]-OH (SMILES Cc1cc(O)cc(C)c1C[C@H](N)C(=O)N[C@@H](C(=O)NCC(=O)N[C@H](CC(=O)N(C)[C@@H](C)C(=O)O)Cc1ccccc1)[C@H](C)O) [H-DMT-(D)Thr-G-bhF-N(Me)-Ala-OH] | ≤ 1 | ≤ 1 | –
H-[Dmt][dD]G[β3hF][NMeA]-OH (SMILES Cc1cc(O)cc(C)c1C[C@H](N)C(=O)N[C@H](CC(=O)O)C(=O)NCC(=O)N[C@H](CC(=O)N(C)[C@@H](C)C(=O)O)Cc1ccccc1) [H-DMT-(D)Asp-G-bhF-N(Me)-Ala-OH] | ≤ 1 | ≤ 1 | –
